# Results from the supplement of paper PMC10567573.
# B1: TPD52L2 (parent)
# chain: EAEEEELRAELTKVEEEIVTLRQV
# Variants of: B1
# Assay: protein stability index of a GFP-peptide fusion (GPS, HEK-293T) (PSI 1-6); higher = more stable
# Conditions: c terminus: a fixed tail appended
# 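Also: lentivirally expressed fusions sorted by FACS into six bins by GFP to DsRed ratio, PSI derived from sequencing read proportions per bin multiplied by bin number.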
row,Variant,protein stability index
1,L7P,5.55
2,L7M,5.21
3,L7H,5.2
4,L7T,5.39
5,L7E,5.74
6,L7R,5.49
7,L7I,5.39
8,L7D,5.5
9,L7F,5.23
10,L7S,5.58
11,L7V,5.77
12,L7W,4.92
13,L7N,5.41
14,L7K,5.49
15,L7Y,5.29
16,L7Q,5.62
17,L7A,5.44
18,L7G,5.14
19,L7C,4.93
20,K13W,4.21
21,K13V,4.33
22,K13H,5.04
23,K13G,5.18
24,K13M,4.18

row,Variant,protein stability index
1,K13E,5.82
2,K13F,4.25
3,K13R,3.27
4,K13S,4.54
5,K13L,4.06
6,K13D,5.76
7,K13T,5.15
8,K13A,3.96
9,K13P,5.55
10,K13Q,4.55
11,K13N,5.26
12,K13I,3.5
13,K13C,5.11
14,K13Y,4.08
15,V14E,5.67
16,V14D,4.74
17,V14C,3.54
18,V14A,4.05
19,A9H,2.82
20,A9S,4.32
21,A9R,3.64
22,A9E,4.34
23,A9L,2.62
24,A9C,3.98

row,Variant,protein stability index
1,A9N,3.79
2,A9G,4.9
3,A9V,3.74
4,A9W,2.51
5,A9T,3.67
6,A9P,5.11
7,A9M,2.95
8,A9I,2.37
9,A9K,3.68
10,A9Q,4
11,A9F,2.4
12,A9D,3.93
13,A9Y,3.44
14,E10Y,4.05
15,E10I,2
16,E10P,5.46
17,E10G,5.34
18,E10K,4.91
19,E10S,3.49
20,E10T,3.21
21,E10M,3.3
22,E10R,4.11
23,E10H,4.38
24,E10C,4.84

row,Variant,protein stability index
1,E10L,2.96
2,E10A,3.05
3,E10F,3.64
4,E10D,4.36
5,E10Q,3.98
6,E10N,4.91
7,E10V,2.72
8,T12E,4.22
9,T12L,3.08
10,T12G,4.8
11,T12P,5.06
12,T12F,3.83
13,T12R,3.12
14,T12N,3.9
15,T12Q,3.87
16,T12I,3.51
17,T12K,3.75
18,T12M,2.65
19,T12V,4.06
20,T12S,3.75
21,T12W,2.1
22,T12Y,3.39
23,T12A,3.35
24,T12H,3.51

row,Variant,protein stability index
1,T12C,3.63
2,T12D,4.91
3,E5N,2.28
4,E5W,2.42
5,E5P,4.18
6,E5S,2.35
7,E5Q,3.35
8,E5T,2.71
9,E5V,1.62
10,E5L,2.64
11,E5M,2.48
12,E5Y,3.06
13,E5K,2.75
14,E5R,2.89
15,E6N,3.15
16,E6D,2.98
17,E6M,2.08
18,E6K,3
19,E6I,3.62
20,E6Q,3.46
21,E6F,2.68
22,E6G,2.73
23,E6L,2.8
24,E6P,4.32

row,Variant,protein stability index
1,E6C,2.51
2,E6Y,3.08
3,E6W,2.62
4,E6S,3.12
5,E6R,3.23
6,E6T,3.58
7,E6V,3.81
8,E6H,2.91
9,E6A,3.06
10,R8S,4.79
11,R8T,5.17
12,R8Y,3.41
13,R8D,4.91
14,R8G,4.55
15,R8I,3.83
16,R8M,3.79
17,R8A,4.23
18,R8P,5.43
19,R8N,4.51
20,R8L,3.6
21,R8F,3.66
22,R8K,4.59
23,R8W,2.59
24,R8C,4.16

row,Variant,protein stability index
1,R8E,4.84
2,R8H,3.91
3,R8Q,3.96
4,R8V,3.97
5,L11K,5.55
6,L11D,5.92
7,L11H,5.43
8,L11V,5.2
9,L11N,5.25
10,L11M,3.99
11,L11S,5.65
12,L11E,4.83
13,L11F,5.09
14,L11T,5.33
15,L11Q,5.67
16,L11Y,5.51
17,L11I,4.98
18,L11A,5.8
19,L11G,5.38
20,L11R,5.22
21,L11C,5.5
22,L11W,5
23,L11P,5.64
